Measurements taken from PMC4198062.

Molecular target: c-Jun (UniProt P05412)
Experiment: single molecule FRET, surface-immobilized PAGE4
Details: reference: PAGE4 P102C expressed alone (nonphosphorylated); sites T51

other: percent of molecules shifted to low FRET with c-Jun: weaker; reference 70
Substance: PAGE4 (from UniProt O60829) PAGE4 P102C coexpressed with GST-HIPK1 in E. coli
